Results published in US20130231261.

Target: T1, RNase H (UniProt P0A7Y4)
T1 sequence: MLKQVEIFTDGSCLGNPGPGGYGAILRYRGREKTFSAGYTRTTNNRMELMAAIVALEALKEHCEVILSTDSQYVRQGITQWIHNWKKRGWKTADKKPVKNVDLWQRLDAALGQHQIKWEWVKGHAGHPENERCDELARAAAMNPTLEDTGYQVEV
Test: flow

For “AAGCCAGCTGCTTCCATTGGTGGGTCGTTTTTGCTGTCACCAGCAACATTGCCTCGTCTA [EF1a capture oligo without RNA]”, the binding (fluorescence units) (no RNA, equivalent to bead background of 44 units) was 47.
“AAGCCAGCTGCTTCCATTGGTGGGTCGTTTTTGCTGTCACCAGCAACATTGCCTCGTCTA [EF1a capture oligo:EF1a RNA hybrid]” gave a binding (fluorescence units) (bead fluorescence 4x over no-RNA control, released to 45 units on adding MgCl2) of 196.
